Source: US20180280520A1 (NAVIGEN, published 2018)
Changes are numbered by the printed parent chain. “And” between values parts separate entries of the source, which are not always exact repeats. Equal entries are not always repeated. Positions of bridges follow the written chain, without caps; N, C: chain ends. Non-standard residues stand in square brackets, D forms with d. Primed or numbered codes have the meaning given here. No end group written: not given here. PEG4′ = not defined here; PEG6′ = not defined here; PEG8′ = not defined here

B1: T108 (peptide)
peptide: YDPLVFPSDEFDASISQVNEKINQSLAFIRKSDEL
notes: domain: 35-residue RSV C-peptide T108; also called RSV C-peptide T108
B2: Ac-KG-RSVP20 (peptide)
peptide: Ac-[dK]GG[dA][dC][dR][dN][dE][dP][dH][dW][dL][dL][dD][dW][dC][dA][dA]-NH2
modifications: disulfide 5-16
SMILES: CC(=O)N[C@H](CCCCN)C(=O)NCC(=O)NCC(=O)N[C@H](C)C(=O)N[C@@H]1CSSC[C@H](C(=O)N[C@H](C)C(=O)N[C@H](C)C(N)=O)NC(=O)[C@@H](Cc2c[nH]c3ccccc23)NC(=O)[C@@H](CC(=O)O)NC(=O)[C@@H](CC(C)C)NC(=O)[C@@H](CC(C)C)NC(=O)[C@@H](Cc2c[nH]c3ccccc23)NC(=O)[C@@H](Cc2c[nH]cn2)NC(=O)[C@H]2CCCN2C(=O)[C@@H](CCC(=O)O)NC(=O)[C@@H](CC(N)=O)NC(=O)[C@@H](CCCNC(=N)N)NC1=O
B3: Chol-Ac-K(PEG4)DDG-RSVP32-trimer (peptide)
peptide: Ac-[dK][PEG4′][dD][dD]GG[dE][dC][dV][dN][dR][dP][dE][dW][dL][dL][dD][dW][dC]G[dT]-NH2
modifications: disulfide 8-19; also: Chol, attachment not given here, trimer, linkage not given here
B4: Ac-K(PEG6)-RSVP21-trimer (peptide)
peptide: Ac-KG[dA][dC][dT][dN][dR][dA][dE][dW][dL][dI][dD][dW][dC][dA][dA]-NH2
modifications: disulfide 4-15 (inferred); not fully specified (residue 1); printed as Ac-K(PEG6)-RSVP21-trimer; also: PEG6 after N-terminal K (side chain or backbone unclear), trimer
B5: Ac-K(PEG6)-RSVP20-trimer (peptide)
peptide: Ac-KG[dA][dC][dR][dN][dE][dP][dH][dW][dL][dL][dD][dW][dC][dA][dA]-NH2
modifications: disulfide 4-15 (inferred); not fully specified (residue 1); printed as Ac-K(PEG6)-RSVP20-trimer; also: PEG6 after N-terminal K (side chain or backbone unclear), trimer

Biological target: T1, BPEG2-GKG-RSVB-IZN45 Full Mut (respiratory syncytial virus, RSV-B, N-terminal biotinPEG2; C-terminal amide)
T1 construct: also called IZN45_Mut; mutant target
T1 chain: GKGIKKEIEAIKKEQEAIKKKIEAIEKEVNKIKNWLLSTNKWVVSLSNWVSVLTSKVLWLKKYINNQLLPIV
Assay: SPR

| Binder | binding result |
| --- | --- |
| FDASISQVNEKINQSLAFIRKSDELLHNVNAGKST (also called RSV C-peptide T118) [T118] | no binding |
| B1 | no binding |

Biological target: T1, BPEG2-GKG-RSVB-IZN45 Full Mut
Assay: phage ELISA

| Binder | binding result |
| --- | --- |
| YDPLVFPSDEFDASISQVNEKINQSLAFIRKSDEL (domain: 35-residue RSV C-peptide T108) [control phage displaying T108] | no binding |

The binders below were run against RSV F protein (RSV-A) (respiratory syncytial virus, RSV-A) (UniProt P03420) (assay: cell-based or functional assay).
Sequence of RSV F protein (RSV-A) (respiratory syncytial virus, RSV-A) (P03420 26-574): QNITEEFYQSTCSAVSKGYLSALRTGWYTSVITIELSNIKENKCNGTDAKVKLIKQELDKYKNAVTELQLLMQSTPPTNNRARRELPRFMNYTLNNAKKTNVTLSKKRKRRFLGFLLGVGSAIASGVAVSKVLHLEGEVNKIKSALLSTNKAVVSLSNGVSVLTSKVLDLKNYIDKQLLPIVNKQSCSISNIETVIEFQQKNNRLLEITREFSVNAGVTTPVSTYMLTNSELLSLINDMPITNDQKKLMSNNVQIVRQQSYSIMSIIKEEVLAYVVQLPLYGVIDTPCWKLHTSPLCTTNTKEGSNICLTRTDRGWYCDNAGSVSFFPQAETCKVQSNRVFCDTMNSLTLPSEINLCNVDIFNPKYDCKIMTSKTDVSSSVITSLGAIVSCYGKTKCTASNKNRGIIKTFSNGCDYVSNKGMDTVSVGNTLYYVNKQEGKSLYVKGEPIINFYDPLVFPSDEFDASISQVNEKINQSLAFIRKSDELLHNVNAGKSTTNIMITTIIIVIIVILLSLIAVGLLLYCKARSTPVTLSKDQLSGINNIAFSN

| Binder | IC50, syncytia reduction assay | potency | potency, fold decrease compared to RSVP32 |
| --- | --- | --- | --- |
| Ac-[dK][PEG6′][dD][dD]G[dS][dA][dC][dV][dN][dR][dP][dE][dW][dL][dL][dD][dW][dC]G[dT]-NH2 (disulfide 8-19; also: cholesterol conjugate, trimer) [Chol-Ac-K(PEG6)DDG-RSVP29-trimer] | 120 nM and 100 nM | – | – |
| Ac-[dK][PEG6′]G[dH][dA][dC][dV][dN][dR][dP][dE][dW][dL][dL][dD][dW][dC]G[dR]G[dR][dR]-NH2 (disulfide 6-17; also: cholesterol conjugate, trimer) [Chol-Ac-K(PEG6)G-RSVP26-GRR-trimer] | 490 nM | – | – |
| Ac-[dK][PEG6′][dD][dD]G[dH][dA][dC][dV][dN][dR][dP][dE][dW][dL][dL][dD][dW][dC]G[dR]-NH2 (disulfide 8-19; also: cholesterol (Chol) conjugate, site not given here, trimer) [Chol-Ac-K(PEG6)DDG-RSVP26-trimer] | 3200 nM | – | – |
| Ac-[dK][PEG6′][dD][dD]G[dS][dM][dC][dV][dN][dR][dP][dE][dW][dL][dL][dD][dW][dC]G[dT]-NH2 (disulfide 8-19; also: trimer, linkage not given here) [Ac-K(PEG6)DDG-RSVP24-trimer] | 5500 nM | – | – |
| Ac-[dK][PEG6′]G[dA][dC][dR][dN][dE][dP][dH][dW][dL][dL][dD][dW][dC][dA][dA]-NH2 (disulfide 5-16; also: cholesterol (Chol) conjugate, site not given here, trimer) [Chol-Ac-K(PEG6)-RSVP20-trimer] | 7900 nM | – | – |
| B2 | 673000 nM | – | – |
| Ac-[dK][PEG6′][dD][dD]G[dH][dE][dC][dV][dN][dR][dP][dE][dW][dL][dL][dD][dW][dC][dE][dH]-NH2 (disulfide 8-19; also: cholesterol conjugate, trimer) [Chol-Ac-K(PEG6)DDG-RSVP27-trimer] | 140 nM and 90 nM and 88 nM | – | – |
| Ac-[dK][PEG6′][dD][dD]G[dH][dA][dC][dV][dN][dR][dP][dE][dW][dL][dL][dD][dW][dC][dD][dH]-NH2 (disulfide 8-19; also: cholesterol conjugate, trimer) [Chol-Ac-K(PEG6)DDG-RSVP28-trimer] | 240 nM | – | – |
| GEVCRPEWLLDWCGT (D-peptide; N-terminal acetyl; C-terminal amide) [RSVP32 with shortened disulfide] | – | 360 nM | 14.4 fold |
| Ac-[dK][PEG8′]GG[dE][dC][dV][dN][dR][dP][dE][dW][dL][dL][dD][dW][dC]G[dT]G[dD][dD]-NH2 (disulfide 6-17; also: cholesterol conjugate, trimer) [Chol-Ac-K(PEG8)G-RSVP32-GDD-trimer] | 24 nM and 8 nM | – | – |
| Ac-[dS][dM][dC][dV][dN][dR][dP][dE][dW][dL][dL][dD][dW][dC]G[dT]G[dD][dD][PEG6′][dK]-NH2 (disulfide 3-14; also: trimer, linkage not given here) [Ac-RSVP24-GDD(PEG6)K-trimer] | 4600 nM | – | – |
| Ac-[dS][dM][dC][dV][dN][dR][dP][dE][dW][dL][dL][dD][dW][dC]G[dT]G[dD][dD][PEG6′][dK]-NH2 (disulfide 3-14; also: cholesterol conjugate, trimer) [Chol-Ac-RSVP24-GDD(PEG6)K-trimer] | 97 nM | – | – |
| Ac-G[dE][dC][dV][dN][dR][dP][dE][dW][dL][dL][dD][dW][dC]G[dT]G[dD][dD][PEG4′][dK]-NH2 (disulfide 3-14; also: cholesterol conjugate, trimer) [Chol-Ac-RSVP32-GDD(PEG4)K-trimer] | 37 nM and 52 nM and 95 nM | – | – |
| Ac-[dK][PEG6′]G[dH][dA][dC][dV][dN][dR][dP][dE][dW][dL][dL][dD][dW][dC]G[dR]G[dR][dR]-NH2 (disulfide 6-17; also: trimer, linkage not given here) [Ac-K(PEG6)G-RSVP26-GRR-trimer] | 5500 nM | – | – |
| KKGAAAARWFELPEPEWWG (not fully specified; all D-amino acids; C-terminal PEG6 joined to the hub) [KKGAAAA-RSVP7-G(PEG6)-Tricasso] | 13900 nM and 7400 nM | – | – |
| Ac-[dK][PEG6′][dD][dD]G[dA][dE][dC][dV][dN][dR][dP][dE][dW][dL][dL][dD][dW][dC]G[dT]-NH2 (disulfide 8-19; also: cholesterol conjugate, trimer) [Chol-Ac-K(PEG6)DDG-RSVP31-trimer] | 65 nM and 54 nM and 24 nM | – | – |
| GECVNQPEWLLDWCGT (D-peptide; N-terminal acetyl; C-terminal amide) [RSVP32 with Gln at position 6] | – | 53 nM | 2 fold |
| B3 | 28 nM and 16 nM and 11 nM | – | – |

These binders were tested against RSV F protein (RSV-A) (respiratory syncytial virus, RSV-A, UniProt P03420 26-574) (assay: cell-based or functional assay).

| Binder | IC50, syncytia reduction assay |
| --- | --- |
| B4 | 65000 nM |
| [dK]G[dR][dW][dF][dE][dL][dP][dE][dP][dE][dW][dW]G (not fully specified (C-terminus); printed as KG-RSVP7-G(PEG6)-Tricasso) [KG-RSVP7-G(PEG6)-Tricasso] | 18400 nM |
| KKGRWFELPEPEWWG (not fully specified; all D-amino acids; C-terminal PEG6 joined to the hub) [KKG-RSVP7-G(PEG6)-Tricasso] | 4800 nM and 4500 nM |
| B5 | 55000 nM and 19000 nM |

Biological target: T2, BPEG2-GKG-RSVB-IZN45 (respiratory syncytial virus, RSV-B, N-terminal biotinPEG2; C-terminal amide)
T2 chain: T1 chain with W35A, W42A, W49G, W59D, K62N
Assay: SPR, biotinylated L-IZN45 on NeutrAvidin chip

| Binder | Kd |
| --- | --- |
| FDASISQVNEKINQSLAFIRKSDELLHNVNAGKST (also called RSV C-peptide T118) [T118] | ~1 nM |

Biological target: T3, IZN45_WT_Bot (N-terminal biotinPEG2; C-terminal amide)
T3 construct: also called BPEG2-GKG-RSVB-IZN45 wt bot
T3 N-trimer mimic monomer (IZ fused to N45, partial groove mutant): T1 chain with W49G, W59D, K62N
Assay: phage ELISA of clonal phage, percent bound

| Binder | binding result |
| --- | --- |
| SLKYWWMEELPLPKWW [X16-18 phage clone] | no binding |

Biological target: T1, BPEG2-GKG-RSVB-IZN45 Full Mut
Assay: phage ELISA of clonal phage, percent bound

| Binder | binding result |
| --- | --- |
| SLKYWWMEELPLPKWW [X16-18 phage clone] | no binding |
| GACKIHDLFHWHDCAA (disulfide (positions not given here); not fully specified (bridges), also called CXC10C-119) [CX10C-119 phage clone] | no binding |
| SKVILPEPFWWP [X12-47 phage clone] | no binding |
